Data: patent US20160271244A1
Values joined by “and” are separate entries in the source; they are usually repeats but may differ in a detail not shown here. Equal entries are not always repeated.

With 4E10 (antibody) the Kd (JRFL APA DEG) was 140 nM and 150 nM and 180 nM, the koff (JRFL APA DEG) was 0.001 s⁻¹ and the kon (JRFL APA DEG) was 6800 M⁻¹ s⁻¹ and 6600 M⁻¹ s⁻¹ and 5500 M⁻¹ s⁻¹. It also gave a Kd (JRFL APA) of 1380 nM, a koff (JRFL APA) of 0.001 s⁻¹ and a kon (JRFL APA) of 720 M⁻¹ s⁻¹.
